Laboratory results published in patent US9926375B2, “Anti-endoglin antibodies and uses thereof” (Tracon Pharmaceuticals, Inc., priority 2014, dated 2018).
Entries after “also recorded” stand apart in the source; their conditions may differ.

Tests used:
NASH mice = assay: Murine model of non-alcoholic steatohepatitis (NASH; STZ and high fat diet); assay type: in vivo, mouse
Description: The purpose of this study was to examine the protective effects of endoglin antibodies on a murine model of NASH.
NASH was established by a single subcutaneous injection of STZ (Sigma, USA) after birth and feeding with a high fat diet (HFD; CLEA Japan, Japan) ad libitum after 4 weeks of age (day 28±2).
Randomization of mice into 6 groups of 10 mice was done at 9 weeks of age (day 63±2), the day before the start of treatment.
Group 3 (Positive control; Temlisartan Group): Ten NASH mice were be orally administered pure water supplemented with telmisartan at a dose of 10 mg/kg once daily from day 63 to 84.
Group 4 (Antibody M1043: M1043 Group): Ten NASH mice were intravenously administered vehicle supplemented with Antibody M1043 at a dose of 10 mg/kg twice weekly at day 63, 66, 70, 73, 77 and 80.
Group 5 (Antibody TRC105; TRC105 Group): Ten NASH mice were intravenously administered vehicle supplemented with Antibody TRC105 at a dose of 10 mg/kg twice weekly at day 63, 66, 70, 73, 77 and 80.
Group 6 (Antibody TRC205; TRC205 Group): Ten NASH mice were intravenously administered vehicle supplemented with Antibody TRC205 at a dose of 10 mg/kg twice weekly at days 63, 66, 70, 73, 77 and 80.
Mice in all groups were terminated for the following assays at 12 weeks of age.
H&E staining of liver tissue was conducted to estimate NAFLD Activity score.
Total NAS score represents the sum of scores for steatosis, lobular inflammation, and ballooning, and ranges from 0-8. Diagnosis of NASH (or, alternatively, fatty liver not diagnostic of NASH) should be made first, then NAS is used to grade activity. In the reference study, NAS scores of 0-2 occurred in cases largely considered not diagnostic of NASH, scores of 3-4 were evenly divided among those considered not diagnostic, borderline, or positive for NASH. Scores of 5-8 occurred in cases that were largely considered diagnostic of NASH.
Statistical tests were performed using Bonferroni Multiple Comparison Test. P values<0.05 were considered statistically significant.

human CD105 [1] = biological target: T1, human CD105 (Homo sapiens, UniProt P17813); assay: ELISA binding of biotinylated TRC205 antibody to human CD105; conditions: from the binding curve
T1 construct: purchased R&D Systems 1097-EN
T1 sequence (P17813 26-586 limits assumed): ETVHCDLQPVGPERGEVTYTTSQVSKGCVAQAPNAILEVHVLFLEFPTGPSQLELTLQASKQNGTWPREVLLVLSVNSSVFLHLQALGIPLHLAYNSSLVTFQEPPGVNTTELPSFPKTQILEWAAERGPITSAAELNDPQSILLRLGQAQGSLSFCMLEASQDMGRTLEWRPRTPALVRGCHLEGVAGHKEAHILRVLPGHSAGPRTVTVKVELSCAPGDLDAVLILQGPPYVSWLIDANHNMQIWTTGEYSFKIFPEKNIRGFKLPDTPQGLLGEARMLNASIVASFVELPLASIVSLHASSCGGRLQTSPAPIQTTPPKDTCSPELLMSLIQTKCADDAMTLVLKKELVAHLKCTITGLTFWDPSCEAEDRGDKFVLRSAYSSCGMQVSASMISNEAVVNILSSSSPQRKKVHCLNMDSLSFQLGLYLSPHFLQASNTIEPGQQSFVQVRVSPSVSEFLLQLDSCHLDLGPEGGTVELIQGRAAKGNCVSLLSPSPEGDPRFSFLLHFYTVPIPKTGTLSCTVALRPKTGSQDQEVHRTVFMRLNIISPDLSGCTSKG
Method: An ELISA was established to determine the binding of biotinylated TRC205 antibody to human CD105 as follows: The TRC205 antibody (SEQ ID NO 89/SEQ ID NO 93; IgG4) was biotinylated using a Lightning-Link Biotin Conjugation Kit (Type A) (Innova Biosciences Cat. No. 704-0010) according to the manufacturer's instructions. […] After washing three times with PBST, a three-fold dilution series of biotinylated TRC205 antibody (10 μg/ml to 0.014 μg/ml) in PBST/2% BSA was added in duplicate to the plate. Following incubation for 1 hour at room temperature, the plate was washed three times with PBST and binding of the biotinylated TRC205 antibody was detected using streptavidin-HRP (Sigma Cat. No. 55512) and TMB substrate (Sigma Cat. No. T0440). OD450 nm values were measured on a Dynex MRX TCII plate reader.

human CD105 [2] = biological target: T1, human CD105; assay: Competition ELISA against biotinylated TRC205 antibody for binding to human CD105; conditions: biotinylated TRC205 55 ng/ml
Method: After washing three times with PBST, a three-fold dilution series of either human BMP9 (R&D Systems Cat. No. 3209-BP-010) (413 nM to 0.56 nM), or unlabelled TRC205 antibody (40 nM to 0.05 nM) or a single concentration of an irrelevant antibody (66 nM) was mixed with a fixed concentration of biotinylated TRC205 antibody (55 ng/ml) and added to the plate. Following incubation for 1 hour at room temperature, the plate was washed three times with PBST and binding of the biotinylated TRC205 antibody was detected using streptavidin-HRP (Sigma Cat. No. 55512) and TMB substrate (Sigma Cat. No. T0440). OD450 nm values were measured on a Dynex MRX TCII plate reader.

[3] = liver gene expression, mean ± SD, Normal-Vehicle 1.0

B1: TRC205: humanized and deimmunized anti-endoglin antibody (SEQ ID NO 89/SEQ ID NO 93; IgG4) (antibody, V domains shown)
VH: EVQLVESGGGLVKPGGSLRLSCAASGFTFSDAWMDWVRQAPGKGLEWVGEARSKASNHATYYAESVKGRFTISRDDSKNTLYLQMNSLKTEDTAVYYCTRWRRFFDSWGQGTLVTVSS
VL: DIQMTQSPSSLSASVGDRATITCRASSSVSYMHWYQQKPGKAPKPWAYATSNLASGVPSRFSGSGSGTDYTLTISSLQPEDFATYYCQQWSSNPLTFGGGTKVEIK
B1 was tested, and the “Alpha-smooth muscle actin mRNA expression levels compared with the NASH-Vehicle group” value (NASH mice; Bonferroni, P<0.05) was “significantly down-regulated”, the “Liver triglyceride contents compared with the NASH-Vehicle group” value (NASH mice; Bonferroni, P<0.05) was “significant decreases” and the “Mean liver-to-body weight ratio compared with the NASH-Vehicle group” value (NASH mice; Bonferroni, P<0.05) was “tended to decrease; also recorded: no significant difference”. The “NAS compared with the NASH-Vehicle group” value (NASH mice; Bonferroni, P<0.05) was “significant decreases in NAS; also recorded: significant reductions of NAS”, the “Serum alanine aminotransferase (ALT) levels compared with the NASH-Vehicle group” value (NASH mice; Bonferroni, P<0.05) was “tended to decrease” and the “Serum alkaline phosphatase (ALP) levels compared with the NASH-Vehicle group” value (NASH mice; Bonferroni, P<0.05) was “significant decrease”. The “Serum aspartate aminotransferase (AST) levels compared with the NASH-Vehicle group” value (NASH mice; Bonferroni, P<0.05) was “tended to decrease”, the “Tissue inhibitor of metalloproteinase-1 mRNA expression levels compared with the NASH-Vehicle group” value (NASH mice; Bonferroni, P<0.05) was “tended to decrease” and the “Tumor necrosis factor-alpha mRNA expression levels compared with the NASH-Vehicle group” value (NASH mice; Bonferroni, P<0.05) was “tended to increase”. The “F4/80-positive signals and cells in liver compared with the NASH-Vehicle group” value (NASH mice; F4/80 immunostaining, macrophage marker) was “Lower F4/80-positive signals and positive cells”, the “Alpha-SMA mRNA expression” value (NASH mice; [3]) was 1.1 ± 0.3 and the “MCP-1 mRNA expression” value (NASH mice; [3]) was 9.3 ± 9.1. For the same molecule, the “TIMP-1 mRNA expression” value (NASH mice; [3]) was 6.0 ± 2.6, the “TNF-α mRNA expression” value (NASH mice; [3]) was 6.2 ± 2.4 and the Liver triglyceride (NASH mice; mean ± SD) was 29.3 ± 9.4 mg/g liver. The “Serum ALP” value (NASH mice; mean ± SD) was 264 ± 63 U/L, the “Serum ALT” value (NASH mice; mean ± SD) was 28 ± 16 U/L and the “Serum AST” value (NASH mice; mean ± SD) was 83 ± 41 U/L. The Sirius red-positive area (NASH mice; mean ± SD, liver sections) was 0.93 ± 0.14%, the “NAS (NAFLD Activity score)” value (NASH mice; mean ± SD, range 0-8, 10 mg/kg) was 3.6 ± 1.1 and the “Lobular inflammation score 0, number of mice” value (NASH mice; score 0 = No Foci) was 5. The “Hepatocyte ballooning score 0, number of mice” value (NASH mice; score 0 = None) was 1, the “Steatosis score 1, number of mice” value (NASH mice; score 1 = 5-33%) was 6 and the “Hepatocyte ballooning score 1, number of mice” value (NASH mice; score 1 = Few balloon cells) was 4. For the same molecule, the “Lobular inflammation score 2, number of mice” value (NASH mice; score 2 = 2-4 foci/200x) was 4, the “Steatosis score 2, number of mice” value (NASH mice; score 2 = >33-66%) was 3 and the “Hepatocyte ballooning score 2, number of mice” value (NASH mice; score 2 = Many cells/prominent ballooning) was 4. For the same molecule, the “Inflammatory cell infiltration in the liver” value (NASH mice; summary of lobular inflammation score and F4/80 immunostaining) was “reductions in inflammatory cell infiltration in the liver”, the “EC50 of binding to human CD105” value (human CD105 [1]) was 0.046 µg/mL and the “IC50 of competition with biotinylated TRC205 antibody” value (human CD105 [2]) was 0.26 µg/mL.
